# Results published in the Immune Epitope Database (IEDB).
# Key:
# HLA-B*15:01 = assay: IEDB peptide-MHC binding, purified MHC/competitive/radioactivity; filed as Kd, often an IC50 or EC50 that approximates it; ≥ and ≤ were set here for values at or beyond the usual limits of such assays
# HLA-A*26:01 = assay: as above; details: source organism: Dengue virus 1 Brazil/97-11/1997
# HLA-B*35:01 = assay: as above
# HLA-B*07:02 = assay: as above
# HLA-B*51:01 = assay: as above
# HLA-B*53:01 = assay: as above
# HLA-B*54:01 = assay: as above
# HLA-A*02:01 [1] = assay: as above
# HLA-A*68:02 = assay: as above
# HLA-A*02:06 = assay: as above
# HLA-A*01:01 = assay: as above
# HLA-B*40:01 = assay: as above
# HLA-B*57:01 = assay: IEDB peptide-MHC binding, purified MHC/direct/fluorescence; filed as Kd, often an IC50 or EC50 that approximates it; ≥ and ≤ were set here for values at or beyond the usual limits of such assays; details: source organism: Giardia lamblia ATCC 50803
# HLA-B*58:01 = assay: as above; details: source organism: Giardia lamblia ATCC 50803
# HLA-A*02:03 = assay: IEDB peptide-MHC binding, purified MHC/competitive/radioactivity; filed as Kd, often an IC50 or EC50 that approximates it; ≥ and ≤ were set here for values at or beyond the usual limits of such assays; details: source organism: Vaccinia virus WR
# HLA-A*02:02 = assay: as above; details: source organism: Vaccinia virus WR
# HLA-A*02:01 [2] = assay: IEDB peptide-MHC binding, purified MHC/competitive/fluorescence; filed as Kd, often an IC50 or EC50 that approximates it; ≥ and ≤ were set here for values at or beyond the usual limits of such assays
# HLA-B*08:01 = assay: IEDB peptide-MHC binding, purified MHC/competitive/radioactivity; filed as Kd, often an IC50 or EC50 that approximates it; ≥ and ≤ were set here for values at or beyond the usual limits of such assays
# HLA-A*23:01 = assay: as above; details: source organism: Dengue virus 3 Martinique/1243/1999
# HLA-A*11:01 = assay: as above; details: source organism: Mammarenavirus machupoense
# HLA-A*32:01 = assay: as above; details: source organism: Vaccinia virus WR
# HLA-A*30:02 = assay: as above; details: source organism: Dengue virus 3 Martinique/1243/1999
# [3] = source organism: Dengue virus 1 Brazil/97-11/1997
# [4] = source organism: Dengue virus 3 Martinique/1243/1999
# [5] = source organism: Triticum aestivum
# [6] = source organism: Vaccinia virus WR
# [7] = source organism: Dengue virus 4 Philippines/H241/1956
# [8] = source organism: Dengue virus 2 Jamaica/1409/1983
sequence,measurement,setting,value
MLVTPSMAM,Kd,HLA-B*15:01; [3],3.06 nM
same,Kd,HLA-A*26:01,6420 nM
same,Kd,HLA-B*35:01; [3],442 nM
LPVCQSSSM,Kd,HLA-B*07:02; [4],10.5 nM
same,Kd,HLA-B*51:01; [4],2740 nM
same,Kd,HLA-B*35:01; [4],12.6 nM
same,Kd,HLA-B*53:01; [4],1010 nM
QPFPSQQPYL,Kd,HLA-B*54:01; [5],10800 nM
same,Kd,HLA-B*07:02; [5],17500 nM
same,Kd,HLA-B*51:01; [5],10.3 nM
same,Kd,HLA-B*35:01; [5],433 nM
same,Kd,HLA-B*53:01; [5],8540 nM
LNINKNGSF,Kd,HLA-B*15:01; [6],479 nM
ILIEGVFFA,Kd,HLA-A*02:01 [1]; source organism: Human alphaherpesvirus 2,0.16 nM
TPTIEDDKIV,Kd,HLA-B*54:01; [6],3150 nM
same,Kd,HLA-B*07:02; [6],19700 nM
same,Kd,HLA-B*51:01; [6],10100 nM
same,Kd,HLA-B*35:01; [6],≥ 52200 nM
same,Kd,HLA-B*53:01; [6],≥ 29000 nM
NMDPLNDNI,Kd,HLA-A*68:02; source organism: Homo sapiens,≥ 85700 nM
same,Kd,HLA-A*02:01 [1]; source organism: Homo sapiens,1930 nM
NQYLLTMFF,Kd,HLA-B*15:01; [6],1.21 nM
ELVENGKKV,Kd,HLA-A*68:02; source organism: Homo sapiens,6350 nM
same,Kd,HLA-A*02:06; source organism: Homo sapiens,9570 nM
EIFKHLVFF,Kd,HLA-B*15:01; [6],12.2 nM
AKNPNRFVI,Kd,HLA-B*54:01; source organism: Variola virus,≥ 78100 nM
same,Kd,HLA-B*07:02; source organism: Variola virus,11900 nM
same,Kd,HLA-B*51:01; source organism: Variola virus,≥ 77400 nM
same,Kd,HLA-B*35:01; source organism: Variola virus,≥ 77400 nM
same,Kd,HLA-B*53:01; source organism: Variola virus,≥ 78100 nM
DTAWDFGSI,Kd,HLA-A*68:02; [3],3.09 nM
same,Kd,HLA-A*26:01,562 nM
TVIDLEPISY,Kd,HLA-B*15:01; [7],1.36 nM
same,Kd,HLA-A*01:01; [7],8390 nM
ETQHGTTVV,Kd,HLA-A*68:02; [7],8.6 nM
QETWNRQDLL,Kd,HLA-B*40:01; [3],9.21 nM
RTRPPPCPH,Kd,HLA-B*57:01,935 nM
same,Kd,HLA-B*58:01,≥ 20000 nM
ALCKVTVPT,Kd,HLA-A*02:03,130 nM
same,Kd,HLA-A*02:02,110 nM
same,Kd,HLA-A*02:06; [6],210 nM
same,Kd,HLA-A*02:01 [1]; [6],31 nM
MPVTVASAAQ,Kd,HLA-B*07:02; [3],446 nM
same,Kd,HLA-B*51:01; [3],≥ 69600 nM
same,Kd,HLA-B*35:01; [3],391 nM
VEAGRTLRVL,Kd,HLA-B*40:01; source organism: Dengue virus 2 Peru/IQT2913/1996,12.1 nM
ANISTILYF,Kd,HLA-B*15:01; [6],128 nM
AINVEKIEL,Kd,HLA-A*02:01 [2]; [6],≥ 20000 nM
RKSGKKVIQL,Kd,HLA-B*08:01; [7],301 nM
AETQHGTVLV,Kd,HLA-B*40:01; [3],98.4 nM
IINKRKKTSL,Kd,HLA-B*08:01; [4],83.9 nM
WLGARYLEF,Kd,HLA-B*15:01; [4],158 nM
same,Kd,HLA-B*08:01; [4],2.26 nM
same,Kd,HLA-A*23:01,82.7 nM
SEIKRGLFF,Kd,HLA-B*15:01; [6],323 nM
LEYTIVITPH,Kd,HLA-B*40:01; [8],2470 nM
LEFEALGFLN,Kd,HLA-B*40:01; source organism: Murray valley encephalitis virus (strain MVE-1-51),144 nM
TTAEEAAGI,Kd,HLA-A*02:01 [1]; source organism: Homo sapiens,4170 nM
RDALDNLAVL,Kd,HLA-B*08:01; [8],1160 nM
LPQHLTLRAQ,Kd,HLA-B*07:02; [3],265 nM
same,Kd,HLA-B*51:01; [3],≥ 31700 nM
same,Kd,HLA-B*35:01; [3],520 nM
TPQPKPGTRM,Kd,HLA-B*07:02; [7],39.9 nM
same,Kd,HLA-B*35:01; [7],177 nM
MLNNSFYYM,Kd,HLA-B*54:01; source organism: Mammarenavirus machupoense,7520 nM
same,Kd,HLA-A*11:01,195 nM
MAMFYAHAL,Kd,HLA-B*08:01; [6],1.15 nM
same,Kd,HLA-A*32:01,12500 nM
YMGEDGCWY,Kd,HLA-B*15:01; [4],14.8 nM
same,Kd,HLA-A*30:02,≥ 36900 nM
same,Kd,HLA-A*01:01; [4],177 nM
MTATPPGTA,Kd,HLA-A*68:02; [4],35.2 nM
LVEKVLKIL,Kd,HLA-A*02:01 [2]; source organism: Vaccinia virus,992 nM
